Laboratory results published in paper doi:10.1101/2023.08.24.554544 (2023).

T1: aster yellows witches'-broom phytoplasma SAP05 (AYWB_SAP05), mature, 33-135 (Aster Yellows phytoplasma strain …, UniProt Q2NK94 33-135)
T1 chain: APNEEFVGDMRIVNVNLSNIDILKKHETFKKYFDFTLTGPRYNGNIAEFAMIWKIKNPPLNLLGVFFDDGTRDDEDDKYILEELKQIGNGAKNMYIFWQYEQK

B1: GST-tagged A. thaliana Rpn10 (AtRpn10) vWA domain (domain or fragment)
chain: VLEATMICIDNSEWMRNGDYSPSRLQAQTEAVNLLCGAKTQSNPENTVGILTMAGKGVRVLTTPTSDLGKILACMHGLDVGGEINLTAAIQIAQLALKHRQNKNQRQRIIVFAGSPIKYEKKALEIVGKRLKKNSVSLDIVNFGEDDDEEKPQKLEALLTAVNNNDGSHIVHVPSGANALSDVLLSTPVFTG
B2: GST-tagged homo sapiens Rpn10 (hRpn10) vWA (1-193aa) (domain or fragment)
chain: MVLESTMVCVDNSEYMRNGDFLPTRLQAQQDAVNIVCHSKTRSNPENNVGLITLANDCEVLTTLTPDTGRILSKLHTVQPKGKITFCTGIRVAHLALKHRQGKNHKMRIIAFVGSPVEDNEKDLVKLAKRLKKEKVNVDIINFGEEEVNTEKLTAFVNTLNGKDGTGSHLVTVPPGPSLADALISSPILAGEG

How the values were obtained:
[1] = molecular target: V-shape-GSGS-C-ter peptide (fused V-shape and C-ter peptide of SAP05, linked by the GSGS linker) (UniProt Q2NK94); experiment: SPR
[2] = molecular target: T1, aster yellows witches'-broom …; experiment: SPR

Row | Binder | koff [1] [s⁻¹] | Kd [2] [µM]
1 | B1 | 0.0115 | –
2 | B2 | – | ~149
